The source of these data is patent publication US20210380703A1 (RIGEL PHARMACEUTICALS, published 2021).

In one experiment the target is Mouse ACVR2A (mouse, UniProt P27038 20-135, limits assumed). The experiment in a line: ELISA. An outline of the steps:
(§1)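 ELISA measured binding of ACVR2A-specific monoclonal antibodies to human and mouse ACVR2A. Biotinylated goat anti-human kappa light chain served as positive control and human Fc as negative control.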
In general terms: An ELISA detects its analyte on a solid surface through an enzyme-linked reagent.

The target of the next experiment is T1, Human ACVR2A (human, UniProt P27037 20-135, limits assumed).
T1 construct: also called activin receptor, type II A
T1 sequence (P27037 20-135 limits assumed): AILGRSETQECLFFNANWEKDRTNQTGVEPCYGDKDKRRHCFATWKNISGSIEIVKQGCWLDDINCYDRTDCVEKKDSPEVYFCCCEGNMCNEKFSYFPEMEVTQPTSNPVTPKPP
Nature of the experiment: ELISA. An outline of the steps: as §1

The next experiment concerns the target T2, Goat anti-Human Kappa.
T2 construct: Positive control of the ELISA; also called biotinylated goat anti-human kappa light chain
Nature of the experiment: ELISA, positive control. An outline of the steps: as §1
Also: test concentration or dose not given here.

Mouse ACVR2A, sequence (P27038 20-135 limits assumed): as the sequence (P27037 20-135 limits assumed) above, with K20R, V73I counted along it

B1: 369_F11 (antibody, V domains shown)
VH: EVQLLESGGGLVQPGGSLRLSCAASGFTFDSYGMNWVRQAPGKGLEWVSNINYNSGYKSYADSVKGRFTISRDNSKNTLYLQMNSLRAEDTAVYYCARSANWHDTALDYWGQGTLVTVSS
VL: DIQMTQSPSSLSASVGDRVTITCRASQSIISYLNWYQQKPGKAPKLLIYAATSRASGVPSRFSGSGSGTDFTLTISSLQPEDFATYYCQQSYDLPLTFGGGTKVEIK
On to B1, for which the optical density in the experiment with Mouse ACVR2A came out at 3.37 OD; with Human ACVR2A, 3.2 OD; in the experiment with Goat anti-Human Kappa, 3.66 OD.

B2: 369_G06 (antibody, V domains shown)
VH: EVQLLESGGGLVQPGGSLRLSCAASGFTFDSYGMNWVRQAPGKGLEWVAGINYNGGYTSYADSVKGRFTISRDNSKNTLYLQMNSLRAEDTAVYYCARSANWHDTALDYWGQGTLVTVSS
VL: DIQMTQSPSSLSASVGDRVTITCRASQSILSYVNWYQQKPGKAPKLVIYAATSRASGVPSRFSGSGSGTDFTLTISSLQPEDFATYYCQQSYENPLTFGGGTKVEIK
B2: the figures for the optical density in the experiment with Mouse ACVR2A, in the experiment with Human ACVR2A and with Goat anti-Human Kappa were 2.91 OD, 2.98 OD and 3.38 OD, respectively.

B3: 370_A12 (antibody, V domains shown)
VH: EVQLLESGGGLVQPGGSLRLSCAASGFTFSSYGMNWVRQAPGKGLEWVAGINYNGGYTSYADSVKGRFTISRDNSKNTLYLQMNSLRAEDTAVYYCARSANWHDTALDYWGQGTLVTVSS
VL: DIQMTQSPSSLSASVGDRVTITCRASQSILTYLNWYQQKPGKAPKLLIYAATSLASGVPSRFSGSGSGTDFTLTISSLQPEDFATYYCQQSYDSPLTFGGGTKVEIK
In the case of B3, the values for the optical density with Mouse ACVR2A, with Human ACVR2A and with Goat anti-Human Kappa were 3.19 OD, 3.06 OD and 3.72 OD, respectively.

B4: 369_G11 (antibody, V domains shown)
VH: EVQLLESGGGLVQPGGSLRLSCAASGFTFSSYSMNWVRQAPGKGLEWVANINYNSGYKGYADSVKGRFTISRDNSKNTLYLQMNSLRAEDTAVYYCARSANWHDTALDYWGQGTLVTVSS
VL: DIQMTQSPSSLSASVGDRVTITCRASQSILTYLNWYQQKPGKAPKLLIYAATSLASGVPSRFSGSGSGTDFTLTISSLQPEDFATYYCQQSYESPLTFGGGTKVEIK
B4: the results for the optical density with Mouse ACVR2A, with Human ACVR2A and with Goat anti-Human Kappa were 3.06 OD, 3.03 OD and 2.59 OD, respectively.

B5: 370_C08 (antibody, V domains shown)
VH: EVQLLESGGGLVQPGGSLRLSCAASGFTFSSYGMNWVRQAPGKGLEWVAGINYNGGYKGYADSVKGRFTISRDNSKNTLYLQMNSLRAEDTAVYYCARSANWHDTALDYWGQGTLVTVSS
VL: DIQMTQSPSSLSASVGDRVTITCRASQSISNYLNWYQQKPGKAPKLLIYAVTSRASGVPSRFSGSGSGTDFTLTISSLQPEDFATYYCQQSYDSPLTFGGGTKVEIK
As for B5, the optical density was determined as 2.97 OD with Mouse ACVR2A, 2.73 OD with Human ACVR2A and 3.11 OD with Goat anti-Human Kappa.

B6: 370_A01 (antibody, V domains shown)
VH: EVQLLESGGGLVQPGGSLRLSCAASGFTFSSYSMNWVRQAPGKGLEWVSGINYNSGYKSYADSVKGRFTISRDNSKNTLYLQMNSLRAEDTAVYYCARSANWHDTALDYWGQGTLVTVSS
VL: DIQMTQSPSSLSASVGDRVTITCRASQSISTYLNWYQQKPGKAPKLVIYAATSRASGVPSRFSGSGSGTDFTLTISSLQPEDFATYYCQQSYNLPLTFGGGTKVEIK
As to B6, the optical density with Mouse ACVR2A turned out to be 2.96 OD; with Human ACVR2A, 2.86 OD; in the experiment with Goat anti-Human Kappa it was 3.62 OD.

B7: 370_C09 (antibody, V domains shown)
VH: EVQLLESGGGLVQPGGSLRLSCAASGFTFDSYGMNWVRQAPGKGLEWVSGINYNGGYTSYADSVKGRFTISRDNSKNTLYLQMNSLRAEDTAVYYCARSANWHDTALDYWGQGTLVTVSS
VL: DIQMTQSPSSLSASVGDRVTITCRASQSIISYLNWYQQKPGKAPKLVIYAATSLASGVPSRFSGSGSGTDFTLTISSLQPEDFATYYCQQSYSTPLTFGGGTKVEIK
In the case of B7, the optical density with Mouse ACVR2A came to 2.25 OD; with Human ACVR2A, 1.97 OD; in the experiment with Goat anti-Human Kappa, 3.48 OD.

B8: 369_G04 (antibody, V domains shown)
VH: EVQLLESGGGLVQPGGSLRLSCAASGFTFDSYSMNWVRQAPGKGLEWVSGINYNGGYTSYADSVKGRFTISRDNSKNTLYLQMNSLRAEDTAVYYCARSANWHDTALDYWGQGTLVTVSS
VL: DIQMTQSPSSLSASVGDRVTITCRASQSILTYVNWYQQKPGKAPKLLIYATTSRHSGVPSRFSGSGSGTDFTLTISSLQPEDFATYYCQQSYETPLTFGGGTKVEIK
With B8, the optical density with Mouse ACVR2A was 2.69 OD; in the experiment with Human ACVR2A it was 2.37 OD; in the experiment with Goat anti-Human Kappa, 3.32 OD.

B9: 369_H05 (antibody, V domains shown)
VH: EVQLLESGGGLVQPGGSLRLSCAASGFTFSSYGMNWVRQAPGKGLEWVANINYNGGYTGYADSVKGRFTISRDNSKNTLYLQMNSLRAEDTAVYYCARSANWHDTALDYWGQGTLVTVSS
VL: DIQMTQSPSSLSASVGDRVTITCRASQSIVSYVNWYQQKPGKAPKLLIYAATSRASGVPSRFSGSGSGTDFTLTISSLQPEDFATYYCQQSYSNPLTFGGGTKVEIK
On to B9, for which the optical density with Mouse ACVR2A was 3.34 OD; in the experiment with Human ACVR2A it was 3.25 OD; with Goat anti-Human Kappa, 3.54 OD.

B10: 369_G01 (antibody, V domains shown)
VH: EVQLLESGGGLVQPGGSLRLSCAASGFTFSSYSMNWVRQAPGKGLEWVSNINYNSGYKSYADSVKGRFTISRDNSKNTLYLQMNSLRAEDTAVYYCARSANWHDTALDYWGQGTLVTVSS
VL: DIQMTQSPSSLSASVGDRVTITCRASQSILSYVNWYQQKPGKAPKLLIYAATSRASGVPSRFSGSGSGTDFTLTISSLQPEDFATYYCQQSYSSPLTFGGGTKVEIK
For B10, the optical density with Mouse ACVR2A is 3.67 OD; with Human ACVR2A, 3.57 OD; with Goat anti-Human Kappa it was 3.44 OD.

B11: 370_C05 (antibody, V domains shown)
VH: EVQLLESGGGLVQPGGSLRLSCAASGFTFSSYSMNWVRQAPGKGLEWVAGINYNSGYTGYADSVKGRFTISRDNSKNTLYLQMNSLRAEDTAVYYCARSANWHDTALDYWGQGTLVTVSS
VL: DIQMTQSPSSLSASVGDRVTITCRASQSILSYVNWYQQKPGKAPKLVIYAATSRASGVPSRFSGSGSGTDFTLTISSLQPEDFATYYCQQSYNSPLTFGGGTKVEIK
Consider B11, for which the optical density with Mouse ACVR2A was found to be 3.55 OD; in the experiment with Human ACVR2A, 3.21 OD; in the experiment with Goat anti-Human Kappa, 3.56 OD.

B12: 370_C01 (antibody, V domains shown)
VH: EVQLLESGGGLVQPGGSLRLSCAASGFTFDSYSMNWVRQAPGKGLEWVSGINYNSGYTGYADSVKGRFTISRDNSKNTLYLQMNSLRAEDTAVYYCARSANWHDTALDYWGQGTLVTVSS
VL: DIQMTQSPSSLSASVGDRVTITCRASQSILTYLNWYQQKPGKAPKLVIYAATSLASGVPSRFSGSGSGTDFTLTISSLQPEDFATYYCQQSYDTPLTFGGGTKVEIK
Take B12: the optical density with Mouse ACVR2A is 3.38 OD; with Human ACVR2A, 3.29 OD; in the experiment with Goat anti-Human Kappa, 3.62 OD.

B13: 369_H06 (antibody, V domains shown)
VH: EVQLLESGGGLVQPGGSLRLSCAASGFTFSSYGMNWVRQAPGKGLEWVANINYNGGYKSYADSVKGRFTISRDNSKNTLYLQMNSLRAEDTAVYYCARSANWHDTALDYWGQGTLVTVSS
VL: DIQMTQSPSSLSASVGDRVTITCRASQSIVSYVNWYQQKPGKAPKLLIYAATSRASGVPSRFSGSGSGTDFTLTISSLQPEDFATYYCQQSYDTPLTFGGGTKVEIK
Turning to B13, the optical density is 3.56 OD with Mouse ACVR2A, 3.23 OD with Human ACVR2A and 3.5 OD with Goat anti-Human Kappa.

B14: 369_G12 (antibody, V domains shown)
VH: EVQLLESGGGLVQPGGSLRLSCAASGFTFSSYSMNWVRQAPGKGLEWVANINYNGGYTGYADSVKGRFTISRDNSKNTLYLQMNSLRAEDTAVYYCARSANWHDTALDYWGQGTLVTVSS
VL: DIQMTQSPSSLSASVGDRVTITCRASQSILTYVNWYQQKPGKAPKLVIYAATSRHSGVPSRFSGSGSGTDFTLTISSLQPEDFATYYCQQSDNTPLTFGGGTKVEIK
For the molecule B14, the figures for the optical density in the experiment with Mouse ACVR2A, with Human ACVR2A and with Goat anti-Human Kappa were 1.88 OD, 1.77 OD and 2.65 OD, respectively.

B15: 369_H09 (antibody, V domains shown)
VH: EVQLLESGGGLVQPGGSLRLSCAASGFTFDDYSMNWVRQAPGKGLEWVSGINYNGGYTSYADSVKGRFTISRDNSKNTLYLQMNSLRAEDTAVYYCARSANWHDTALDYWGQGTLVTVSS
VL: DIQMTQSPSSLSASVGDRVTITCRASQSILSYVNWYQQKPGKAPKLLIYAVTSLASGVPSRFSGSGSGTDFTLTISSLQPEDFATYYCQQSYESPLTFGGGTKVEIK
Turning to B15, the optical density in the experiment with Mouse ACVR2A stood at 2.64 OD; with Human ACVR2A, 2.36 OD; with Goat anti-Human Kappa it was 3.51 OD.

B16: 370_C03 (antibody, V domains shown)
VH: EVQLLESGGGLVQPGGSLRLSCAASGFTFSSYGMNWVRQAPGKGLEWVAGINYNGGYKGYADSVKGRFTISRDNSKNTLYLQMNSLRAEDTAVYYCARSANWHDTALDYWGQGTLVTVSS
VL: DIQMTQSPSSLSASVGDRVTITCRASQSILTYLNWYQQKPGKAPKLLIYYVTNRQSGVPSRFSGSGSGTDFTLTISSLQPEDFATYYCQQSYSSPLTFGGGTKVEIK
For B16, the optical density with Mouse ACVR2A was determined as 3.77 OD; with Human ACVR2A, 3.59 OD; in the experiment with Goat anti-Human Kappa it was 3.57 OD.

B17: 370_A04 (antibody, V domains shown)
VH: EVQLLESGGGLVQPGGSLRLSCAASGFTFDSYSMNWVRQAPGKGLEWVSGINYNGGYTSYADSVKGRFTISRDNSKNTLYLQMNSLRAEDTAVYYCARSANWHDTALDYWGQGTLVTVSS
VL: DIQMTQSPSSLSASVGDRVTITCRASQSIITYLNWYQQKPGKAPKLLIYAATSRASGVPSRFSGSGSGTDFTLTISSLQPEDFATYYCQQSYDNPLTFGGGTKVEIK
On to B17, for which the figures for the optical density with Mouse ACVR2A, in the experiment with Human ACVR2A and with Goat anti-Human Kappa were 2.74 OD, 2.57 OD and 3.48 OD, respectively.
